This is an account of results in patent US20060079439A1, “Elastin prevents occlusion of body vessels by vascular smooth muscle cells” (priority 2002, published 2006).

Where two headings read alike, the source gives them in different places. A value given as a limit tells only on which side of the number the result lay.

The subject of data set [1] is Eln −/− vascular smooth muscle cells. As to the kind of experiment: Focal adhesion organization, vinculin immunofluorescence. In kind it is cell-based, mouse. The following applies: 3 hours, 1 ug/ml tropoelastin, 10 nM elastin peptide or 10 nM control peptide.
The test system is the same in data set [2]. The following applies: for formation of organized actin stress fibers / actin myofilament polymerization: 3 hours, 1 ug/ml tropoelastin, 10 nM elastin peptide or 10 nM control peptide.
The subject of data set [3] is vascular smooth muscle cells. Type of data set: cell-based, mouse. On the procedure:
(§1) Instead, we postulated that elastin signals vsmcs to migrate and adhere to the elastic lamellae. To test this hypothesis we used a modified Boyden chamber assay (Li et al., 1998; Raines et al., 1993). This assay system consists of two adjacent chambers separated by a semipermeable membrane. The amount of cells placed in one chamber (upper) that migrate to the other chamber (lower) is measured by counting the number of cells that have passed through to the undersurface of the filter.
Briefly, chemotaxis was measured using a modified Boyden chamber method. […] Prior to their addition to the upper chamber, vascular smooth muscle cells were incubated with either 20 μM EDTA (inhibitor of integrin receptors), 10 μM genistein (inhibitor of receptor tyrosine kinases), 100 ng/ml pertussis toxin, 100 ng/ml β-protomer, 20 μM Y27632, or the cells were left untreated. […] Cells were added to the upper chamber and incubated for three hours.

Data set [4] concerns α smooth muscle actin and vinculin in elastin −/− vascular smooth muscle cells. Briefly: Western blot of protein levels. The following applies: three hours; 1 μg/ml tropoelastin, 10 μM elastin peptide. In kind it is cell-based, mouse. On the procedure: We performed two experiments to address this model. […] Cells were washed with ice-cold DPBS and lysed in an additional 1 ml of Laemmli sample buffer. Following lysis, cells were collected, boiled, pelleted, and resolved by SDS-PAGE. The resolved samples were transferred to a membrane, blocked with 5% milk/PBST, incubated with either an anti-α smooth muscle actin antibody or an anti-vinculin antibody, and visualized using chemiluminescence.
(Immunoblotting shows a protein as a band on a membrane.)

The test system of data set [5] is −/− vascular smooth muscle cells. As to the kind of experiment: F:G actin ratio, sedimentation assay. Type of data set: cell-based, mouse. The following applies: versus untreated cells.
The subject of data set [6] is cAMP levels in Eln −/− vsmcs. In kind it is cell-based, mouse. The note with it: for forskolin induced cAMP levels: 10 μM forskolin pretreatment, 1 ug/ml tropoelastin, 10 μM elastin peptide or control peptide.
A further data set concerns RhoA. Briefly: RhoA activation, Rhotekin bead pull-down and Western blot. Type of data set: cell-based, mouse. The note with it: lysates of treated −/− cells. From the text: Briefly, cell lysates from treated or untreated −/− cells were immunoprecipitated using Rhotekin-coated beads which recognize GTP-bound RhoA. […] Rho-γGTP served as a positive control and Rho-GDP served as a negative control.

The test system of a further data set is COS cells. Briefly: Modified Boyden chamber chemotaxis assay. Type of data set: cell-based.
Excerpt: as §1, with “In Eln −/− arteries, vascular smooth muscle cells accumulated in the subendothelial space and occluded the artery. […] Because the elastic lamellae are highly fenestrated allowing cells to migrate through, it is unlikely that elastin simply forms a physical cage that contains vsmcs. Instead,” for “Instead,”

The subject of another data set is CHO cells. As to the kind of experiment: Modified Boyden chamber chemotaxis assay. Type of data set: cell-based.
Excerpt: as §1, with “In Eln −/− arteries, vascular smooth muscle cells accumulated in the subendothelial space and occluded the artery. […] Because the elastic lamellae are highly fenestrated allowing cells to migrate through, it is unlikely that elastin simply forms a physical cage that contains vsmcs. Instead,” for “Instead,”

Data set [7] has as its system Eln +/+ vascular smooth muscle cells. The note with it: recombinant tropoelastin treatment.
Data set [8] shares this test system. As to the kind of experiment: Actin stress fiber organization, immunofluorescence scoring. In kind it is cell-based, mouse. The following applies: elastin treatment.
The test system of data set [9] is GiRK channel (GiRK 1 and GiRK 4) in A2058 cells. Briefly: GiRK channel activity in transfected A2058 cells. Type of data set: cell-based. The following applies: A2058 cells transiently transfected with GiRK 1 and GiRK 4. An excerpt: Briefly, A2058 cells which are known to be responsive to elastin signaling were used in these studies. A2058 cells were transiently transfected with GiRK 1 and GIRK 4 inorder to form functional heteromultimeric GiRK channels. Transfected cells were contacted with either tropoelastin, a peptide containing 7 repeats of the tropoelastin fragment VGVAPG, or a control peptide.

Data set [10] relates to Eln +/+ and Eln −/− vsmcs. The note with it: added to the media; 24, 48, and 72 hours.
In data set [11] the test system is Eln +/+ and Eln −/− vsmcs. The following applies: trypan blue, end of the experiment (72 hours).
The mark [12] stands for this setting: listed as recombinant tropoelastin.

Turning to “VGVAPG (A bioactive fragment of tropoelastin.) [elastin peptide]”, the “organization of focal adhesions (vinculin)” value in data set [1] was “induced organization of focal adhesions”. Also, the “formation of organized actin stress fibers / actin myofilament polymerization” value in data set [2] is “induced actin myofilament polymerization”. Moreover, the “dose dependence of the increase of actin stress fibers” value in data set [2] (three hours, 0.2 nM to 20 μM) is “dose dependent”. Besides, the “treatment time of maximal effect on actin stress fiber formation” value in data set [2] (time course 15 minutes to 24 hours) is “about 6 hours”. Further, the “vascular smooth muscle migration relative to tropoelastin and PDGF” value in [3] (20 nM elastin peptide, three hours) was “comparable to both tropoelastin and PDGF”. Also, the “protein levels of α smooth muscle actin or vinculin” value in [4] is “does not alter”. In data set [5], the “increase in the F:G actin ratio” value is 3 fold. Besides, the “forskolin induced cAMP levels” value in [6] was “decrease”. Further, the “GTP-bound (activated) RhoA” value in the data set with RhoA is “significant increase”.

B1: tropoelastin: protein encoded by the elastin gene; human amino acid sequence SEQ ID NO: 2; used as recombinant tropoelastin (protein, listed as Homo sapiens)
chain: MAGLTAAAPRPGVLLLLLSILHPSRPGGVPGAIPGGVPGGVFYPGAGLGALGGGALGPGGKPLKPVPGGLAGAGLGAGLGAFPAVTFPGALVPGGVADAAAAYKAAKAGAGLGGVPGVGGLGVSAGAVVPQPGAGVKPGKVPGVGLPGVYPGGVLPGARFPGVGVLPGVPTGAGVKPKAPGVGGAFAGIPGVGPFGGPQPGVPLGYPIKAPKLPGGYGLPYTTGKLPYGYGPGGVAGAAGKAGYPTGTGVGPQAAAAAAAKAAAKFGAGAAGVLPGVGGAGVPGVPGAIPGIGGIAGVGTPAAAAAAAAAAKAAKYGAAAGLVPGGPGFGPGVVGVPGAGVPGVGVPGAGIPVVPGAGIPGAAVPGVVSPEAAAKAAAKAAKYGARPGVGVGGIPTYGVGAGGFPGFGVGVGGIPGVAGVPSVGGVPGVGGVPGVGISPEAQAAAAAKAAKYGVGTPAAAAAKAAAKAAQFGLVPGVGVAPGVGVAPGVGVAPGVGLAPGVGVAPGVGVAPGVGVAPGIGPGGVAAAAKSAAKVAAKAQLRAAAGLGAGIPGLGVGVGVPGLGVGAGVPGLGVGAGVPGFGAGADEGVRRSLSPELREGDPSSSQHLPSTPSSPRVPGALAAAKAAKYGAAVPGVLGGLGALGGVGIPGGVVGAGPAAAAAAAKAAAKAAQFGLVGAAGLGGLGVGGLGVPGVGGLGGIPPAAAAKAAKYGAAGLGGVLGGAGQFPLGGVAARPGFGLSPIFPGGACLGKACGRKRK
A word on the cell viability: it is the share of living cells, or the viability signal relative to a control. A higher cell viability goes with less harm to the cells. On to B1, for which the results for the “organization of focal adhesions (vinculin)” value in data set [1] and in [1] (setting [12]) were “induced organization of focal adhesions” and “induces well-defined focal adhesions”, respectively. In the data set on COS cells, the “migration of COS cells exposed to elastin” value is reported as “No migration”. Besides, in the data set on CHO cells, the “migration of CHO cells exposed to elastin” value was “No migration”. Besides, the “vinculin organization in Eln +/+ vsmcs” value in data set [7] is “does not affect vinculin organization”. Moreover, the “actin stress fiber organization in Eln +/+ cells” value in data set [8] (listed as elastin) was “no affect”; in data set [8] (setting [12]), “does not affect”. Moreover, the “formation of organized actin stress fibers / actin myofilament polymerization” value in data set [2] is given as “induced actin myofilament polymerization”; in [2] (setting [12]), “induces the formation of organized actin stress fibers”. For the same molecule, the “migration of murine vsmcs to recombinant tropoelastin” value in data set [3] is recorded as “migrated aggressively”. In addition, the “migration without concentration gradient (checkerboard analysis)” value in data set [3] (200 ng to 200 ng gradient) is “minimal migration”. Besides, in [3] (data not shown), the “amount of migration induced, relative to platelet derived growth factor” value was “equivalent to the standard dose of 30 ng/ml of platelet derived growth factor”. The “migration of Eln +/+ vsmcs relative to Eln −/− vsmcs” value in data set [3] (exogenous tropoelastin) is on record as “did not migrate towards exogenous tropoelastin as readily as Eln −/− vsmcs”. The GiRK channel activity result in [9] was “activation”. In data set [10], the “proliferation of Eln −/− and Eln +/+ vsmcs” value is reported as “reduced to similar levels”. This molecule also registered a cell viability in data set [11] of more than 98%. For the same molecule, the “protein levels of α smooth muscle actin or vinculin” value in data set [4] is on record as “does not alter”. Besides, the “increase in the F:G actin ratio” value in data set [5] turned out to be 3 fold. Moreover, in data set [6], the “cAMP levels in the presence of cholera toxin” value is listed as “significantly reduced”. Further, the “forskolin induced cAMP levels” value in data set [6] is “decrease”. Moreover, the “increase in cAMP” value in data set [6] (elastin treatment alone) was found to be 3 fold. Moreover, the “level of cAMP in the presence of pertussis toxin” value in [6] (pertussis toxin and elastin) is “raises the level of cAMP”. Further, in the data set on RhoA, the “GTP-bound (activated) RhoA” value is listed as “significant increase”.
